Laboratory results taken from patent US11998620B2, “PSMA targeted compounds and uses thereof” (CASE WESTERN RESERVE UNIVERSITY, priority 2021, dated 2024).
Numbered stars: 1 amine (or outer) side, 2 acyl side, 3 side chain; on linkers, the order of the positions; unused ones are H or OH. Square brackets hold non-standard residues; d marks the D form. Peptide text beside a SMILES is read from it. * marks the point of attachment. DOTA = O=C(O)CN1CCN(CC(=O)O)CCN(CC(=O)*)CCN(CC(=O)O)CC1; γGlu = O=C(O)[CH](CCC(=O)[*:2])N[*:1]; X3 = O=C(C1CCC(CN[*:1])CC1)[*:2]; CO = O=C([*:1])[*:2]; Ahx = NCCCCCC(=O)O

Tests used:
[1] = test system: PSMA-expressing cancer tissue; assay: Standard uptake values (SUVs) by PET and blood clearance, general statements; type: in vivo; conditions: PET
Experimental: The term “standardized uptake value (SUV)” refers to a measure of radioactivity in a specific area of interest relative to an idealized even distribution of radioactive material throughout the body. SUV is used historically by nuclear medicine professionals to distinguish between “normal” and “abnormal” levels of uptake. Preferably, uptake is measured by positron emission tomography (PET) imaging or other imaging modalities.
The PSMA targeted compounds described herein include a PSMA ligand, e.g., PSMA-1, conjugated to a metal chelating agent or chelated metal nuclide. The PSMA targeted compounds described herein can selectively recognize PSMA-expressing tumors, cancer cells, and/or cancer neovasculature in vivo and be used to deliver at least one chelated metal nuclide, such as radionuclide, to the PSMA-expressing tumors, cancer cells, and/or cancer neovasculature to treat and/or detect the PSMA-expressing tumors, cancer cells, and/or cancer neovasculature in a subject. The PSMA ligand can target and/or increase the uptake of the metal chelating agent or chelated metal nuclide in PSMA expressing cancer cells compared to untargeted metal chelated agents or chelated metal nuclides administered to a subject and decrease non-PSMA target toxicity of the metal nuclide administered (e.g., systemically) to a subject.

PSMA = molecular target: T1, PSMA (Homo sapiens, UniProt Q04609); assay: Competition binding assay using [3H]-ZJ24 with PC3pip cells; conditions: approximately, compared to PSMA-11, PSMA I&T and ZJ24 ligands, FIG. 3
T1 construct: expressed in transfected cells; host or cells: PC3pip cells
Description: We first conjugated a macrocyclic DOTA to our PSMA-1 ligand enabling us to label it with [^68Ga]. We then compared the macrocyclic-conjugated PSMA-1 ligand to PSMA-11 ligand, PSMA I&T ligand, and ZJ24 ligand in a competitive radio-binding assay using [^3H]-ZJ24 with PC3pip cells. FIG. 3 illustrates that the PSMA-1 ligand conjugated to DOTA, the PSMA-1 ligand has approximately 4-5 fold higher affinity for PSMA.

[2] = Stability assay: incubation in plasma or PBS, HPLC; type: in vitro ADME; conditions: 100% mouse plasma, PBS or 100% human plasma at 37° C., for 7 days
Experimental: (§1) PSMA-1-DOTA was incubated in 100% mouse Plasma, PBS, or 100% human plasma at 37° C. […] And stability has been monitored and confirmed for at least 7 days frozen in isotonic sterile saline.

[3] = Storage stability (lyophilized powder; frozen in saline); type: physicochemical
Experimental: as §1

[4] = In vivo PET imaging in healthy animals without tumor; design: species or system mice
Experimental: We compared the [^68Ga]-PSMA-11 and the [^68Ga]-PSMA-1-DOTA ligand in healthy animals without tumor. Equal doses of radioactivity were injected into the same animal (a single animal was used to limit variability). We injected the [^68Ga]-PSMA-1-DOTA first to prevent blockade of its binding by the other ligand, waited 24 hours and then injected the other radiolabeled ligand.

[5] = test system: PC3pip tumors that overexpress PSMA; assay: In vivo PET imaging in animals harboring PC3pip tumors
Description: We also made a similar comparison using animals harboring PC3pip tumors that overexpress PSMA.

[6] = PC3pip tumor bearing animals, PET

T1 sequence (Q04609 whole entry): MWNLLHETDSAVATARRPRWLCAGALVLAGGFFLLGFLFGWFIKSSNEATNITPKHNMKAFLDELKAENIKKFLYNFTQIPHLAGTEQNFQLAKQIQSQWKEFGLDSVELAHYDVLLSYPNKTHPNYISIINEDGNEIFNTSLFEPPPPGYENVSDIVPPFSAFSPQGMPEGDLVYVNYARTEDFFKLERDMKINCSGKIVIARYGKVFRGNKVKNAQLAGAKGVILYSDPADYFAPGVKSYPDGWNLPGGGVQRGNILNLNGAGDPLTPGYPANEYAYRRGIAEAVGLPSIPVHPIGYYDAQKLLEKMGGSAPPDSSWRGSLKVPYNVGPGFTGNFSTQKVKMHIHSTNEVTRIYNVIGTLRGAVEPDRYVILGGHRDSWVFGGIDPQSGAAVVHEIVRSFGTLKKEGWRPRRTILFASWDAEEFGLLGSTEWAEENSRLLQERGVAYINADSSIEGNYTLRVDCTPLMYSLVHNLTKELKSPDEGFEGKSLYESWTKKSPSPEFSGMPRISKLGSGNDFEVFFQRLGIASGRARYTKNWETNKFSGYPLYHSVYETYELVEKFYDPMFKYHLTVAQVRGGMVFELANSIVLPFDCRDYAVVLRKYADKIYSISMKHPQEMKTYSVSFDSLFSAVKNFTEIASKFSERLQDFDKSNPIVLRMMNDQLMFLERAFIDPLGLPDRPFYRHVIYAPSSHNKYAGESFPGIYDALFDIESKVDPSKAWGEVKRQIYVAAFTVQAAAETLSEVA

Compound: NC(=O)C(CCCCNC(=O)CN1CCN(CC(=O)O)CCN(CC(=O)O)CCN(CC(=O)O)CC1)NC(=O)C(Cc1ccc(O)cc1)NC(=O)C(CCC(=O)O)NC(=O)C(CCC(=O)O)NC(=O)C(CCC(=O)O)NC(=O)CCCCCNC(=O)CCC(NC(=O)NC(CCC(=O)O)C(=O)O)C(=O)O (stereo not shown) [JB-1498] ({Glu-CO-γGlu-Ahx}-EEEYK(DOTA)-NH2; configuration not given here)
- SUVs in salivary glands, lacrimal glands and non-PSMA expressing muscle tissue versus SUVs in PSMA-expressing cancer [1]: substantially lower SUVs

Compound: NC(=O)C(CCCCNC(=O)CN1CCN(CC(=O)O)CCN(CC(=O)O)CCN(CC(=O)O)CC1)NC(=O)C(CCC(=O)O)NC(=O)C(CCC(=O)O)NC(=O)C(CCC(=O)O)NC(=O)CCCCCNC(=O)C1CCC(CNC(=O)CCC(NC(=O)NC(CCC(=O)O)C(=O)O)C(=O)O)CC1 (stereo not shown) [PSMA-1-DOTA] ({Glu-CO-γGlu}-[X3][Ahx]EEEK(DOTA)-NH2; configuration not given here)
- higher affinity for PSMA (PSMA): 4-5 fold
- degradation/purity by HPLC [2]: No decline in the product
- stability frozen in isotonic sterile saline ([3]; frozen): at least 7 days
- stability as a lyophilized powder ([3]; long term storage): stability for long term storage
- renal clearance ([4]; mouse, in vivo): faster renal clearance
- renal retention of the probe ([4]; mouse, in vivo): less renal retention
- SUVs in salivary glands, lacrimal glands and non-PSMA expressing muscle tissue versus SUVs in PSMA-expressing cancer [1]: substantially lower SUVs

Compound: NC(=O)[C@H](CCCCNC(=O)CN1CCN(CC(=O)O)CCN(CC(=O)O)CCN(CC(=O)O)CC1)NC(=O)[C@@H](CCC(=O)O)NC(=O)[C@@H](CCC(=O)O)NC(=O)[C@@H](CCC(=O)O)NC(=O)CCCCCNC(=O)C1CCC(CNC(=O)CC[C@H](NC(=O)N[C@@H](CCC(=O)O)C(=O)O)C(=O)O)CC1 (stereo partly shown) [[^68Ga]-PSMA-1-DOTA, metal not drawn] ({Glu-CO-γGlu}-[X3][Ahx][dE][dE][dE]K(DOTA)-NH2)
- uptake in the salivary glands ([4]; mouse, in vivo): none
- kidney uptake ([5]; mouse, in vivo): less kidney uptake
- uptake into salivary glands ([5]; mouse, in vivo): no uptake

Compound: O=C([O-])CN(CCN(CC(=O)[O-])Cc1cc(CCC(=O)NCCCCCC(=O)NCCCC[C@H](NC(=O)N[C@@H](CCC(=O)O)C(=O)O)C(=O)O)ccc1[O-])Cc1cc(CCC(=O)O)ccc1[O-].[68Ga+3].[OH3+] [[^68Ga]-PSMA-11]
- uptake in the salivary glands ([4]; healthy animals without tumor, equal doses of radioactivity, PET): significant uptake
- kidney uptake [5, 6]: significant uptake
- uptake in the PC3pip tumor [5, 6]: significant uptake
- uptake into lacrimal glands [5, 6]: significant uptake
- uptake into salivary glands [5, 6]: significant uptake
